Broadly, the Kd is the equilibrium constant for the complex coming apart. Broadly, the kon is the rate constant with which the complex forms. High values mean fast association, low ones slow association.

This test addresses mouse rec1c sNASP variant protein (V281I, L282F) (mouse). In words: BLI; Octet K2, 30 C; sNASP WT or variant immobilised on aminopropylsilane (APS) biosensors, histones in assay buffer at various concentrations (62.5 to 1,000 nM shown for H4), association 240 s; n = 4. A general note: BLI is a label-free optical method that tracks binding on a fibre tip over time.

B1: mouse histone H1a (natural protein)
chain: MSETAPVAQAASTATEKPAAAKKTKKPAKAAAPRKKPAGPSVSELIVQAVSSSKERSGVSLAALKKSLAAAGYDVEKNNSRIKLGLKSLVNKGTLVQTKGTGAAGSFKLNKKAESKAITTKVSVKAKASGAAKKPKKTAGAAAKKTVKTPKKPKKPAVSKKTSKSPKKPKVVKAKKVAKSPAKAKAVKPKASKAKVTKPKTPAKPKKAAPKKK
Molecule B1 displayed a Kd of 412 nM and a kon of 9590 M⁻¹ s⁻¹.

The record behind these values is paper PMC6454087.
